Laboratory results from FireProtDB (doi:10.1016/0022-2836(92)90562-x).

B1: Ribonuclease, P00648 (parent)
chain: MMKMEGIALKKRLSWISVCLLVLVSAAGMLFSTAAKTETSSHKAHTEAQVINTFDGVADYLQTYHKLPDNYITKSEAQALGWVASKGNLADVAPGKSIGGDIFSNREGKLPGKSGRTWREADINYTSGFRNSDRILYSSDWLIYKTTDHYQTFTKIR

Variants of: B1
Details: Bacillus amyloliquefaciens; pH 6.3; 25 °C; Urea; Fluorescence; MES-NaOH 450 mM; reversible: yes; structure 1BNI; whole UniProt chain shown

Variant	ddG of mutation (higher = less stable)	denaturant m value	denaturant midpoint (higher = more stable)	unfolding free energy
MMKMEGIALKKRLSWISVCLLVLVSAAGMLFSTAAKTETSSHKAHTEAQVINTFDGVAAYLQTYHKLPDNYITKSEAQALGWVASKGNLADVAPGKSIGGDIFSNREGKLPGKSGRTWREADINYTSGFRNSDRILYSSDWLIYKTTDHYQTFTKIR	0.39 kcal/mol	1.91 kcal/mol/M	4.4 M	8.43 kcal/mol
MMKMEGIALKKRLSWISVCLLVLVSAAGMLFSTAAKTETSSHKAHTEAQVINTFDGVADALQTYHKLPDNYITKSEAQALGWVASKGNLADVAPGKSIGGDIFSNREGKLPGKSGRTWREADINYTSGFRNSDRILYSSDWLIYKTTDHYQTFTKIR	3 kcal/mol	2.03 kcal/mol/M	2.8 M	5.82 kcal/mol
MMKMEGIALKKRLSWISVCLLVLVSAAGMLFSTAAKTETSSHKAHTEAQVINTFDGAADYLQTYHKLPDNYITKSEAQALGWVASKGNLADVAPGKSIGGDIFSNREGKLPGKSGRTWREADINYTSGFRNSDRILYSSDWLIYKTTDHYQTFTKIR	3.47 kcal/mol	1.89 kcal/mol/M	2.8 M	5.35 kcal/mol
MMKMEGIALKKRLSWISVCLLVLVSAAGMLFSTAAKTETSSHKAHTEAQVINTFDGTADYLQTYHKLPDNYITKSEAQALGWVASKGNLADVAPGKSIGGDIFSNREGKLPGKSGRTWREADINYTSGFRNSDRILYSSDWLIYKTTDHYQTFTKIR	1.99 kcal/mol	2.07 kcal/mol/M	3.3 M	6.83 kcal/mol
MMKMEGIALKKRLSWISVCLLVLVSAAGMLFSTAAKTETSSHKAHTEAQVINTFAGVADYLQTYHKLPDNYITKSEAQALGWVASKGNLADVAPGKSIGGDIFSNREGKLPGKSGRTWREADINYTSGFRNSDRILYSSDWLIYKTTDHYQTFTKIR	0.85 kcal/mol	1.94 kcal/mol/M	4.1 M	7.97 kcal/mol
MMKMEGIALKKRLSWISVCLLVLVSAAGMLFSTAAKTETSSHKAHTEAQVINTFDGVADYLQTYHKLPDNYITKSEAQALGWVASKGNLADAAPGKSIGGDIFSNREGKLPGKSGRTWREADINYTSGFRNSDRILYSSDWLIYKTTDHYQTFTKIR	1.17 kcal/mol	2.08 kcal/mol/M	3.6 M	7.65 kcal/mol
MMKMEGIALKKRLSWISVCLLVLVSAAGMLFSTAAKTETSSHKAHTEAQVINTFDGVADYLQTYHKLPDNYITKSEAQALGWVASKGNLADTAPGKSIGGDIFSNREGKLPGKSGRTWREADINYTSGFRNSDRILYSSDWLIYKTTDHYQTFTKIR	2.22 kcal/mol	1.99 kcal/mol/M	3.3 M	6.6 kcal/mol
MMKMEGIALKKRLSWISVCLLVLVSAAGMLFSTAAKTETSSHKAHTEAQVINTFDGVADYLQTYHKLPDNYIGKSEAQALGWVASKGNLADVAPGKSIGGDIFSNREGKLPGKSGRTWREADINYTSGFRNSDRILYSSDWLIYKTTDHYQTFTKIR	1.01 kcal/mol	2.03 kcal/mol/M	3.8 M	7.81 kcal/mol
MMKMEGIALKKRLSWISVCLLVLVSAAGMLFSTAAKTETSSHKAHTEAQVINTFDGVADYLQTYHKLPDNYIAKSEAQALGWVASKGNLADVAPGKSIGGDIFSNREGKLPGKSGRTWREADINYTSGFRNSDRILYSSDWLIYKTTDHYQTFTKIR	1.67 kcal/mol	2 kcal/mol/M	3.5 M	7.15 kcal/mol
MMKMEGIALKKRLSWISVCLLVLVSAAGMLFSTAAKTETSSHKAHTEAQVINTFDGVADYLQTYHKLPDNFITKSEAQALGWVASKGNLADVAPGKSIGGDIFSNREGKLPGKSGRTWREADINYTSGFRNSDRILYSSDWLIYKTTDHYQTFTKIR	-0.09 kcal/mol	1.95 kcal/mol/M	4.5 M	8.91 kcal/mol
MMKMEGIALKKRLSWISVCLLVLVSAAGMLFSTAAKTETSSHKAHTEAQVINTFDGVADYLQTYHKLPDNYATKSEAQALGWVASKGNLADVAPGKSIGGDIFSNREGKLPGKSGRTWREADINYTSGFRNSDRILYSSDWLIYKTTDHYQTFTKIR	3.68 kcal/mol	1.85 kcal/mol/M	2.7 M	5.14 kcal/mol
MMKMEGIALKKRLSWISVCLLVLVSAAGMLFSTAAKTETSSHKAHTEAQVINTFDGVADYLQTYHKLPDNYVTKSEAQALGWVASKGNLADVAPGKSIGGDIFSNREGKLPGKSGRTWREADINYTSGFRNSDRILYSSDWLIYKTTDHYQTFTKIR	0.83 kcal/mol	2 kcal/mol/M	4 M	7.99 kcal/mol
MMKMEGIALKKRLSWISVCLLVLVSAAGMLFSTAAKTETSSHKAHTEAQVANTFDGVADYLQTYHKLPDNYITKSEAQALGWVASKGNLADVAPGKSIGGDIFSNREGKLPGKSGRTWREADINYTSGFRNSDRILYSSDWLIYKTTDHYQTFTKIR	0.75 kcal/mol	2.08 kcal/mol/M	3.8 M	8.07 kcal/mol
MMKMEGIALKKRLSWISVCLLVLVSAAGMLFSTAAKTETSSHKAHTEAQVVNTFDGVADYLQTYHKLPDNYITKSEAQALGWVASKGNLADVAPGKSIGGDIFSNREGKLPGKSGRTWREADINYTSGFRNSDRILYSSDWLIYKTTDHYQTFTKIR	0.81 kcal/mol	1.88 kcal/mol/M	4.2 M	8.01 kcal/mol
MMKMEGIALKKRLSWISVCLLVLVSAAGMLFSTAAKTETSSHKAHTEAQVINTFAGVAAYLQTYHKLPDNYITKSEAQALGWVASKGNLADVAPGKSIGGDIFSNREGKLPGKSGRTWREADINYTSGFRNSDRILYSSDWLIYKTTDHYQTFTKIR	1.41 kcal/mol	1.78 kcal/mol/M	4.16 M	7.41 kcal/mol
MMKMEGIALKKRLSWISVCLLVLVSAAGMLFSTAAKTETSSHKAHTEAQVINTFDGVADYLQTYHKLPDNYITGSEAQALGWVASKGNLADVAPGKSIGGDIFSNREGKLPGKSGRTWREADINYTSGFRNSDRILYSSDWLIYKTTDHYQTFTKIR	0.38 kcal/mol	1.94 kcal/mol/M	4.3 M	8.44 kcal/mol

Variant	ddG of mutation (higher = less stable)	denaturant m value	denaturant midpoint (higher = more stable)	unfolding free energy
MMKMEGIALKKRLSWISVCLLVLVSAAGMLFSTAAKTETSSHKAHTEAQVIATFDGVADYLQTYHKLPDNYITKSEAQALGWVASKGNLADVAPGKSIGGDIFSNREGKLPGKSGRTWREADINYTSGFRNSDRILYSSDWLIYKTTDHYQTFTKIR	1.59 kcal/mol	2 kcal/mol/M	3.6 M	7.23 kcal/mol
MMKMEGIALKKRLSWISVCLLVLVSAAGMLFSTAAKTETSSHKAHTEAQVINTFDGVAAYLQTYHKLPDNYITKSEAQALGWVASKGNLADVAPGKSIGGDIFSNREGKLPGKSGRTWREADINYTSGFRNSDRILYSSDWLIYKTTDHYQTFTKIA	-0.39 kcal/mol	1.93 kcal/mol/M	4.78 M	9.21 kcal/mol
MMKMEGIALKKRLSWISVCLLVLVSAAGMLFSTAAKTETSSHKAHTEAQVINTFDGVADYLQRYHKLPDNYITKSEAQALGWVASKGNLADVAPGKSIGGDIFSNREGKLPGKSGRTWREADINYTSGFRNSDRILYSSDWLIYKTTDHYQTFTKIR	-0.74 kcal/mol	1.99 kcal/mol/M	4.8 M	9.56 kcal/mol
MMKMEGIALKKRLSWISVCLLVLVSAAGMLFSTAAKTETSSHKAHTEAQVINTFDGVADYLQSYHKLPDNYITKSEAQALGWVASKGNLADVAPGKSIGGDIFSNREGKLPGKSGRTWREADINYTSGFRNSDRILYSSDWLIYKTTDHYQTFTKIR	1.36 kcal/mol	2.03 kcal/mol/M	3.6 M	7.46 kcal/mol
MMKMEGIALKKRLSWISVCLLVLVSAAGMLFSTAAKTETSSHKAHTEAQVINTFAGVAAYLQTYHKLPDNYITKSEAQALGWVASKGNLADVAPGKSIGGDIFSNREGKLPGKSGRTWREADINYTSGFRNSDRILYSSDWLIYKTTDHYQTFTKIA	-0.18 kcal/mol	1.94 kcal/mol/M	4.63 M	9 kcal/mol
MMKMEGIALKKRLSWISVCLLVLVSAAGMLFSTAAKTETSSHKAHTEAQVINTFDGVADYLQTYHKLPDNYITKSEASALGWVASKGNLADVAPGKSIGGDIFSNREGKLPGKSGRTWREADINYTSGFRNSDRILYSSDWLIYKTTDHYQTFTKIR	-0.07 kcal/mol	2 kcal/mol/M	4.4 M	8.89 kcal/mol
MMKMEGIALKKRLSWISVCLLVLVSAAGMLFSTAAKTETSSHKAHTEAQVINAFDGVADYLQTYHKLPDNYITKSEAQALGWVASKGNLADVAPGKSIGGDIFSNREGKLPGKSGRTWREADINYTSGFRNSDRILYSSDWLIYKTTDHYQTFTKIR	2.02 kcal/mol	1.97 kcal/mol/M	3.4 M	6.8 kcal/mol
MMKMEGIALKKRLSWISVCLLVLVSAAGMLFSTAAKTETSSHKAHTEAQVINGFDGVADYLQTYHKLPDNYITKSEAQALGWVASKGNLADVAPGKSIGGDIFSNREGKLPGKSGRTWREADINYTSGFRNSDRILYSSDWLIYKTTDHYQTFTKIR	0.61 kcal/mol	2.08 kcal/mol/M	3.9 M	8.21 kcal/mol
MMKMEGIALKKRLSWISVCLLVLVSAAGMLFSTAAKTETSSHKAHTEAQVINTFDGVADYLQTAHKLPDNYITKSEAQALGWVASKGNLADVAPGKSIGGDIFSNREGKLPGKSGRTWREADINYTSGFRNSDRILYSSDWLIYKTTDHYQTFTKIR	1.67 kcal/mol	2.02 kcal/mol/M	3.5 M	7.15 kcal/mol
MMKMEGIALKKRLSWISVCLLVLVSAAGMLFSTAAKTETSSHKAHTEAQVINTFDGVADYLQTYHKLPDNYITKSGAQALGWVASKGNLADVAPGKSIGGDIFSNREGKLPGKSGRTWREADINYTSGFRNSDRILYSSDWLIYKTTDHYQTFTKIR	2.05 kcal/mol	1.84 kcal/mol/M	3.6 M	6.77 kcal/mol
MMKMEGIALKKRLSWISVCLLVLVSAAGMLFSTAAKTETSSHKAHTEAQVINTFDGVADALQTAHKLPDNYITKSEAQALGWVASKGNLADVAPGKSIGGDIFSNREGKLPGKSGRTWREADINYTSGFRNSDRILYSSDWLIYKTTDHYQTFTKIR	3.96 kcal/mol	2 kcal/mol/M	2.43 M	4.86 kcal/mol
MMKMEGIALKKRLSWISVCLLVLVSAAGMLFSTAAKTETSSHKAHTEAQVINTFDGVADYAQTYHKLPDNYITKSEAQALGWVASKGNLADVAPGKSIGGDIFSNREGKLPGKSGRTWREADINYTSGFRNSDRILYSSDWLIYKTTDHYQTFTKIR	4.53 kcal/mol	1.87 kcal/mol/M	2.2 M	4.29 kcal/mol
MMKMEGIALKKRLSWISVCLLVLVSAAGMLFSTAAKTETSSHKAHTEAQVINTFDGVADYLQTYHKLPDNYITKSEAQALGWVASKGDLADVAPGKSIGGDIFSNREGKLPGKSGRTWREADINYTSGFRNSDRILYSSDWLIYKTTDHYQTFTKIR	2.62 kcal/mol	1.89 kcal/mol/M	3.2 M	6.2 kcal/mol
MMKMEGIALKKRLSWISVCLLVLVSAAGMLFSTAAKTETSSHKAHTEAQVINTFDGVADYLQTYHKLPDAYITKSEAQALGWVASKGNLADVAPGKSIGGDIFSNREGKLPGKSGRTWREADINYTSGFRNSDRILYSSDWLIYKTTDHYQTFTKIR	2.2 kcal/mol	1.94 kcal/mol/M	3.4 M	6.62 kcal/mol
MMKMEGIALKKRLSWISVCLLVLVSAAGMLFSTAAKTETSSHKAHTEAQVINTFDGVADYLQTYHKLPDNYITKSEAQALGWAASKGNLADVAPGKSIGGDIFSNREGKLPGKSGRTWREADINYTSGFRNSDRILYSSDWLIYKTTDHYQTFTKIR	1.68 kcal/mol	1.83 kcal/mol/M	3.9 M	7.14 kcal/mol
MMKMEGIALKKRLSWISVCLLVLVSAAGMLFSTAAKTETSSHKAHTEAQVINTFDGVADYLQTYHKLPDNYITKSEAQALGWTASKGNLADVAPGKSIGGDIFSNREGKLPGKSGRTWREADINYTSGFRNSDRILYSSDWLIYKTTDHYQTFTKIR	1.05 kcal/mol	1.95 kcal/mol/M	3.9 M	7.77 kcal/mol
